T1: human FcγRIIB, soluble ectodomain (human, UniProt P31994 43-217)
T1 construct: extracellular domain; Recombinant; also called hFcγRIIB; huFcγRIIB
T1 sequence (looked up): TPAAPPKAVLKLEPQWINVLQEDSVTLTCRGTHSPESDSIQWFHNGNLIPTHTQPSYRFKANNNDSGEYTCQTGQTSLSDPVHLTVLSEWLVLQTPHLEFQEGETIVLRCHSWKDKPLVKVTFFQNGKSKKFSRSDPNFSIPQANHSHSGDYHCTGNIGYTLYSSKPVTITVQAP

T2: human FcγRIIA R131 allele, soluble ectodomain (human, UniProt P12318 34-217)
T2 construct: extracellular domain; also called hFcγRIIA^R131; hFcγRIIA
T2 sequence (looked up): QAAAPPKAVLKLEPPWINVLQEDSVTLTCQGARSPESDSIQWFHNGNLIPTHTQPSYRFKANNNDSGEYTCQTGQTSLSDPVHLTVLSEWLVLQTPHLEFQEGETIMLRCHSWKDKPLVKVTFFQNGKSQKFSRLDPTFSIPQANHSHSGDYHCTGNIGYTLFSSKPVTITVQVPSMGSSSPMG


Assays:
[1] = target: T3, human CD40, soluble ectodomain / recombinant extracellular domain (human, UniProt P25942 21-193); experiment: SPR (Biacore T100), IgG immobilised, soluble CD40 injected
T3 construct: also called hCD40; huCD40
T3 sequence (P25942 21-193): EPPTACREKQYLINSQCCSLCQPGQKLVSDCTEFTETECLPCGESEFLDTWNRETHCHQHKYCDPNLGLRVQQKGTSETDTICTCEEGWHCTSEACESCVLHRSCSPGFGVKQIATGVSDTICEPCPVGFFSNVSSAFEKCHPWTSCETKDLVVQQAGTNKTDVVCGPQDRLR
Description: (§1) All experiments were performed with a Biacore T100 surface plasmon resonance (SPR) system (Biacore, GE Healthcare), as previously described (Bournazos, et al., 2014, Cell 158, 1243-1253). Briefly, experiments were performed at 25_C in HBS-EP+ buffer (10 mM HEPES, pH 7.4; 150 mM NaCl; 3.4 mM EDTA; 0.005% (v/v) surfactant P20). […] Background binding to blank immobilized flow cells was subtracted and affinity constants were calculated using BIAcore T100 evaluation software (GE Healthcare) using the 1:1 Langmuir binding model.

[2] = target: T1, human FcγRIIB, soluble ectodomain; experiment: SPR (Biacore T100), 2141 Fc variant and soluble FcγR ectodomain
Description: as §1

[3] = target: T4, human FcγRI, soluble ectodomain (human, UniProt P12314 16-292); experiment: as above
T4 construct: extracellular domain; Recombinant; also called hFcγRI; huFcγRI
T4 sequence (P12314 16-292): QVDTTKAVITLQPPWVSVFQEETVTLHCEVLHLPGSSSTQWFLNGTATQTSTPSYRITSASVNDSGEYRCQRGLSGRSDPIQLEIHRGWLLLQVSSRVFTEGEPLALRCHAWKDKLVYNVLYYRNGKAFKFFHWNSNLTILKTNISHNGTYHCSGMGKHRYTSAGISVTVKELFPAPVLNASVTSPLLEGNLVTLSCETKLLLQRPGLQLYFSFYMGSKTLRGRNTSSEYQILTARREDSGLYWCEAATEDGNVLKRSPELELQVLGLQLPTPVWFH
Description: as §1

[4] = target: T2, human FcγRIIA R131 allele, soluble …; experiment: as above
Description: as §1

[5] = target: T5, human FcγRIIIA F158 allele, soluble ectodomain (human, UniProt P08637 17-208); experiment: as above
T5 construct: extracellular domain; also called hFcγRIIIA^F158; huFcγRIIIA
T5 sequence (P08637 17-208): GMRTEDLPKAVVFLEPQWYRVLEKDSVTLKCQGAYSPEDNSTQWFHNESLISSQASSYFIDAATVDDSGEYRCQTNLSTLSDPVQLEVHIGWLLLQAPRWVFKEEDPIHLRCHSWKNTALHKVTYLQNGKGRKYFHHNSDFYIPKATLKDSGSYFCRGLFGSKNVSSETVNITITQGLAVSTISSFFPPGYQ
Description: as §1

[6] = target: T1, human FcγRIIB, soluble ectodomain; experiment: fold change in hFcγRIIB binding affinity against wild type IgG1, from SPR
Description: as §1

[7] = target: T2, human FcγRIIA R131 allele, soluble …; experiment: ratio of the binding affinities to hFcγRIIA R131 and to hFcγRIIB, from SPR
Description: as §1

[8] = target: T2, human FcγRIIA R131 allele, soluble …; experiment: graded summary table of FcγR binding affinity profiles (SPR, see Table 4); the sheet prints no allele, R131 taken from Table 4
Description: as §1

Binder	Kd [1] [nM]	koff [1] [s⁻¹]	kon [1] [M⁻¹ s⁻¹]	also measured
2141-IgG1 (anti-human CD40 Ab clone 21.4.1, wild type human IgG1) (antibody, Made in HEK293T cells; also called IgG1 wild type) heavy: not shown light: DIQMTQSPSSVSASVGDRVTITCRASQGIYSWLAWYQQKPGKAPNLLIYTASTLQSGVPSRFSGSGSGTDFTLTISSLQPEDFATYYCQQANIFPLTFGGGTKVEIKRTVAAPSVFIFPPSDEQLKSGTASVVCLLNNFYPREAKVQWKVDNALQSGNSQESVTEQDSKDSTYSLSSTLTLSKADYEKHKVYACEVTHQGLSSPVTKSFNRGEC	19.9	0.00119	59700	Fold (KD(IgG1)/KD(Fc variant)) [2]: 1 fold; Fold (KD(IgG1)/KD(Fc variant)) [3]: 1 fold; Fold (KD(IgG1)/KD(Fc variant)) [4]: 1 fold; Fold (KD(IgG1)/KD(Fc variant)) [5]: 1 fold; FcγRIIB -fold [6]: 1 fold; IIA/IIB [7]: 2.7
2141-IgG2 (CP-870,893, human IgG2) (antibody) heavy: not shown light: DIQMTQSPSSVSASVGDRVTITCRASQGIYSWLAWYQQKPGKAPNLLIYTASTLQSGVPSRFSGSGSGTDFTLTISSLQPEDFATYYCQQANIFPLTFGGGTKVEIKRTVAAPSVFIFPPSDEQLKSGTASVVCLLNNFYPREAKVQWKVDNALQSGNSQESVTEQDSKDSTYSLSSTLTLSKADYEKHKVYACEVTHQGLSSPVTKSFNRGEC	31	0.00108	34900	Kd [4]: < 10000 nM; Kd [5]: < 10000 nM
2141-IgG1 S267E (antibody, also called SE) heavy: not shown light: DIQMTQSPSSVSASVGDRVTITCRASQGIYSWLAWYQQKPGKAPNLLIYTASTLQSGVPSRFSGSGSGTDFTLTISSLQPEDFATYYCQQANIFPLTFGGGTKVEIKRTVAAPSVFIFPPSDEQLKSGTASVVCLLNNFYPREAKVQWKVDNALQSGNSQESVTEQDSKDSTYSLSSTLTLSKADYEKHKVYACEVTHQGLSSPVTKSFNRGEC	23.1	0.00115	50000	–
2141-IgG1 G237D/P238D/P271G/A330R (V9) (antibody) heavy: not shown light: DIQMTQSPSSVSASVGDRVTITCRASQGIYSWLAWYQQKPGKAPNLLIYTASTLQSGVPSRFSGSGSGTDFTLTISSLQPEDFATYYCQQANIFPLTFGGGTKVEIKRTVAAPSVFIFPPSDEQLKSGTASVVCLLNNFYPREAKVQWKVDNALQSGNSQESVTEQDSKDSTYSLSSTLTLSKADYEKHKVYACEVTHQGLSSPVTKSFNRGEC	26.8	0.00113	42200	Kd [3]: 578 nM
2141-IgG1 G237D/P238D/H268D/P271G/A330R (V11) (antibody, also called 2141-V11) heavy: not shown light: DIQMTQSPSSVSASVGDRVTITCRASQGIYSWLAWYQQKPGKAPNLLIYTASTLQSGVPSRFSGSGSGTDFTLTISSLQPEDFATYYCQQANIFPLTFGGGTKVEIKRTVAAPSVFIFPPSDEQLKSGTASVVCLLNNFYPREAKVQWKVDNALQSGNSQESVTEQDSKDSTYSLSSTLTLSKADYEKHKVYACEVTHQGLSSPVTKSFNRGEC	27.4	0.00112	41000	–
2141-IgG1 N297A (antibody, also called N297A Fc-null) heavy: not shown light: DIQMTQSPSSVSASVGDRVTITCRASQGIYSWLAWYQQKPGKAPNLLIYTASTLQSGVPSRFSGSGSGTDFTLTISSLQPEDFATYYCQQANIFPLTFGGGTKVEIKRTVAAPSVFIFPPSDEQLKSGTASVVCLLNNFYPREAKVQWKVDNALQSGNSQESVTEQDSKDSTYSLSSTLTLSKADYEKHKVYACEVTHQGLSSPVTKSFNRGEC	22.2	0.00116	52300	binding result [8]: no binding
2141-IgG2 C232S (antibody, also called IgG2-C232S (IgG2A); IgG2-A) heavy: not shown light: DIQMTQSPSSVSASVGDRVTITCRASQGIYSWLAWYQQKPGKAPNLLIYTASTLQSGVPSRFSGSGSGTDFTLTISSLQPEDFATYYCQQANIFPLTFGGGTKVEIKRTVAAPSVFIFPPSDEQLKSGTASVVCLLNNFYPREAKVQWKVDNALQSGNSQESVTEQDSKDSTYSLSSTLTLSKADYEKHKVYACEVTHQGLSSPVTKSFNRGEC	30.9	0.00109	35200	–
2141-IgG2 C127S (antibody, also called IgG2-B) heavy: not shown light: DIQMTQSPSSVSASVGDRVTITCRASQGIYSWLAWYQQKPGKAPNLLIYTASTLQSGVPSRFSGSGSGTDFTLTISSLQPEDFATYYCQQANIFPLTFGGGTKVEIKRTVAAPSVFIFPPSDEQLKSGTASVVCLLNNFYPREAKVQWKVDNALQSGNSQESVTEQDSKDSTYSLSSTLTLSKADYEKHKVYACEVTHQGLSSPVTKSFNRGEC	30.9	0.0011	35500	–
2141-IgG1 S267E/L328F (antibody, also called SELF) heavy: not shown light: DIQMTQSPSSVSASVGDRVTITCRASQGIYSWLAWYQQKPGKAPNLLIYTASTLQSGVPSRFSGSGSGTDFTLTISSLQPEDFATYYCQQANIFPLTFGGGTKVEIKRTVAAPSVFIFPPSDEQLKSGTASVVCLLNNFYPREAKVQWKVDNALQSGNSQESVTEQDSKDSTYSLSSTLTLSKADYEKHKVYACEVTHQGLSSPVTKSFNRGEC	27.4	0.00116	42300	Kd [4]: 17.7 nM

Source: patent US20210139598A1 (ROCKEFELLER UNIVERSITY, published 2021)
